Results on 75 variants are retold here after article PMC12102759 (2025).

B1: MXI1 peptide 6-21 (Max-interacting protein 1), 16-mer library wild type / SIN3A PAH2 (SIN3A PAH domain, residues 295-383) (parent complex)
chain 1: MINVQRLLEAAEFLER
chain 2: SLQNNQPVEFNHAINYVNKIKNRFQGQPDIYKAFLEILHTYQKEQRNAKEAGGNYTPALTEQEVYAQVARLFKNQEDLLSEFGQFLPDA
B2: PEX5 peptide 110-125 (Peroxisomal targeting signal 1 receptor), 16-mer library wild type / PEX14 Pex14 (PEX14 PEX14, residues 16-84) (parent complex)
chain 1: ADLALSENWAQEFLAA
chain 2: TPGSENVLPREPLIATAVKFLQNSRVRQSPLATRRAFLKKKGLTDEEIDMAFQQSGTAADEPSSLGPAT

One test covers variants of B1. In words: proteomic peptide phage display deep mutational scan (ProP-PD DMS): M13 P8 16-mer library selected against immobilised GST-tagged bait for four days (rounds), NGS of the eluted pools per day and pseudo-replica; bait immobilised on MaxiSorp plates (10 µg), library pre-cleared on GST, 2 h binding at 4 °C, five washes; one round per day, days 1-4; value from days 2 and 3.
In the case of chain 1 R6G, the screen value is 0.000834 average fractional NGS count over selection days 2 and 3 (reads of this peptide / all reads for the bait, averaged over ….

Consider chain 1 R6A, for which the screen value was 0.00198 average fractional NGS count over selection days 2 and 3 (reads of this peptide / all reads for the bait, averaged over …. Same read-out and setting: the same measure for chain 1 L8G: 0.000132 average fractional NGS count over selection days 2 and 3 (reads of this peptide / all reads for the bait, averaged over …; for chain 1 L8Q: 0.000344 average fractional NGS count over selection days 2 and 3 (reads of this peptide / all reads for the bait, averaged over ….

As for chain 1 L8V, the screen value is 0.000127 average fractional NGS count over selection days 2 and 3 (reads of this peptide / all reads for the bait, averaged over ….

As for chain 1 L8H, the screen value was 0.000323 average fractional NGS count over selection days 2 and 3 (reads of this peptide / all reads for the bait, averaged over …. Take chain 1 L8T: the screen value was 0.000156 average fractional NGS count over selection days 2 and 3 (reads of this peptide / all reads for the bait, averaged over ….

Regarding chain 1 A10W, the screen value was 0.000448 average fractional NGS count over selection days 2 and 3 (reads of this peptide / all reads for the bait, averaged over …. Same read-out and setting: the value for chain 1 A11E was 0.000155 average fractional NGS count over selection days 2 and 3 (reads of this peptide / all reads for the bait, averaged over …; that for chain 1 A11W was 0.00145 average fractional NGS count over selection days 2 and 3 (reads of this peptide / all reads for the bait, averaged over …; that for chain 1 A11Q was 0.000778 average fractional NGS count over selection days 2 and 3 (reads of this peptide / all reads for the bait, averaged over …. For chain 1 A11H, the screen value is 0.000274 average fractional NGS count over selection days 2 and 3 (reads of this peptide / all reads for the bait, averaged over ….

Regarding chain 1 A11I, the screen value was 0.000346 average fractional NGS count over selection days 2 and 3 (reads of this peptide / all reads for the bait, averaged over …. Same read-out and setting: the same measure for chain 1 A11G: 0.000249 average fractional NGS count over selection days 2 and 3 (reads of this peptide / all reads for the bait, averaged over …; for chain 1 I2P: 0.000427 average fractional NGS count over selection days 2 and 3 (reads of this peptide / all reads for the bait, averaged over …; for chain 1 I2E: 0.00021 average fractional NGS count over selection days 2 and 3 (reads of this peptide / all reads for the bait, averaged over …. Still for that read-out and setting: the same measure for chain 1 I2L: 0.000364 average fractional NGS count over selection days 2 and 3 (reads of this peptide / all reads for the bait, averaged over …; for chain 1 I2S: 0.000713 average fractional NGS count over selection days 2 and 3 (reads of this peptide / all reads for the bait, averaged over …. Take chain 1 Q5H: the screen value is 0.00355 average fractional NGS count over selection days 2 and 3 (reads of this peptide / all reads for the bait, averaged over …. In the case of chain 1 Q5F, the screen value was 0.000275 average fractional NGS count over selection days 2 and 3 (reads of this peptide / all reads for the bait, averaged over ….

With chain 1 Q5S, the screen value is 0.000556 average fractional NGS count over selection days 2 and 3 (reads of this peptide / all reads for the bait, averaged over …. Take chain 1 Q5A: the screen value is 0.000986 average fractional NGS count over selection days 2 and 3 (reads of this peptide / all reads for the bait, averaged over …. On the same count and under the same terms, the same measure for chain 1 Q5Y: 0.00574 average fractional NGS count over selection days 2 and 3 (reads of this peptide / all reads for the bait, averaged over …; for chain 1 E15K: 0.000258 average fractional NGS count over selection days 2 and 3 (reads of this peptide / all reads for the bait, averaged over …. On the same count and under the same terms, the value for chain 1 E15N was 0.000504 average fractional NGS count over selection days 2 and 3 (reads of this peptide / all reads for the bait, averaged over …; that for chain 1 E15R was 0.000127 average fractional NGS count over selection days 2 and 3 (reads of this peptide / all reads for the bait, averaged over …; that for chain 1 E15M was 8.82e-05 average fractional NGS count over selection days 2 and 3 (reads of this peptide / all reads for the bait, averaged over …. As for chain 1 E15Q, the screen value was 0.000842 average fractional NGS count over selection days 2 and 3 (reads of this peptide / all reads for the bait, averaged over …. Still for that read-out and setting: the value for chain 1 E15H was 0.00272 average fractional NGS count over selection days 2 and 3 (reads of this peptide / all reads for the bait, averaged over …; that for chain 1 E15P was 0.000251 average fractional NGS count over selection days 2 and 3 (reads of this peptide / all reads for the bait, averaged over …; that for chain 1 E12H was 0.00554 average fractional NGS count over selection days 2 and 3 (reads of this peptide / all reads for the bait, averaged over ….

Regarding chain 1 E12T, the screen value was 0.000504 average fractional NGS count over selection days 2 and 3 (reads of this peptide / all reads for the bait, averaged over …. For the variant chain 1 E12I, the screen value was 0.000347 average fractional NGS count over selection days 2 and 3 (reads of this peptide / all reads for the bait, averaged over …. chain 1 V4N: the screen value is 0.000273 average fractional NGS count over selection days 2 and 3 (reads of this peptide / all reads for the bait, averaged over …. Take chain 1 V4I: the screen value was 0.000288 average fractional NGS count over selection days 2 and 3 (reads of this peptide / all reads for the bait, averaged over …. Still for that read-out and setting: the value for chain 1 V4T was 0.00342 average fractional NGS count over selection days 2 and 3 (reads of this peptide / all reads for the bait, averaged over …. Same read-out and setting: the value for chain 1 L14Y was 0.00247 average fractional NGS count over selection days 2 and 3 (reads of this peptide / all reads for the bait, averaged over …; that for chain 1 L14W was 0.000239 average fractional NGS count over selection days 2 and 3 (reads of this peptide / all reads for the bait, averaged over ….

In the case of chain 1 L14M, the screen value is 0.000829 average fractional NGS count over selection days 2 and 3 (reads of this peptide / all reads for the bait, averaged over …. On the same count and under the same terms, the same measure for chain 1 L14H: 0.00159 average fractional NGS count over selection days 2 and 3 (reads of this peptide / all reads for the bait, averaged over …; for chain 1 N3V: 0.000212 average fractional NGS count over selection days 2 and 3 (reads of this peptide / all reads for the bait, averaged over …. With chain 1 N3E, the screen value was 0.000543 average fractional NGS count over selection days 2 and 3 (reads of this peptide / all reads for the bait, averaged over ….

For the variant chain 1 N3K, the screen value was 0.000249 average fractional NGS count over selection days 2 and 3 (reads of this peptide / all reads for the bait, averaged over …. Regarding chain 1 L7Y, the screen value is 0.00109 average fractional NGS count over selection days 2 and 3 (reads of this peptide / all reads for the bait, averaged over …. As to chain 1 L7W, the screen value is 0.00101 average fractional NGS count over selection days 2 and 3 (reads of this peptide / all reads for the bait, averaged over …. Same read-out and setting: the value for chain 1 F13Q was 0.00155 average fractional NGS count over selection days 2 and 3 (reads of this peptide / all reads for the bait, averaged over ….

With chain 1 F13L, the screen value was 0.00028 average fractional NGS count over selection days 2 and 3 (reads of this peptide / all reads for the bait, averaged over ….

In the case of chain 1 F13Y, the screen value is 0.00195 average fractional NGS count over selection days 2 and 3 (reads of this peptide / all reads for the bait, averaged over …. The same measure, in the same setting: the value for chain 1 F13W was 0.00114 average fractional NGS count over selection days 2 and 3 (reads of this peptide / all reads for the bait, averaged over …. Same read-out and setting: the value for chain 1 F13R was 0.00192 average fractional NGS count over selection days 2 and 3 (reads of this peptide / all reads for the bait, averaged over …; that for chain 1 F13G was 0.00169 average fractional NGS count over selection days 2 and 3 (reads of this peptide / all reads for the bait, averaged over …. For the variant chain 1 F13V, the screen value is 0.000201 average fractional NGS count over selection days 2 and 3 (reads of this peptide / all reads for the bait, averaged over ….

On to chain 1 M1P, for which the screen value is 0.000146 average fractional NGS count over selection days 2 and 3 (reads of this peptide / all reads for the bait, averaged over …. chain 1 M1D: the screen value is 9.92e-05 average fractional NGS count over selection days 2 and 3 (reads of this peptide / all reads for the bait, averaged over …. For chain 1 M1K, the screen value is 0.000747 average fractional NGS count over selection days 2 and 3 (reads of this peptide / all reads for the bait, averaged over …. On the same count and under the same terms, the value for chain 1 M1Y was 0.000304 average fractional NGS count over selection days 2 and 3 (reads of this peptide / all reads for the bait, averaged over …; that for chain 1 M1F was 0.000314 average fractional NGS count over selection days 2 and 3 (reads of this peptide / all reads for the bait, averaged over …. On the same count and under the same terms, the same measure for chain 1 E9G: 0.000184 average fractional NGS count over selection days 2 and 3 (reads of this peptide / all reads for the bait, averaged over …; for chain 1 E9I: 0.000125 average fractional NGS count over selection days 2 and 3 (reads of this peptide / all reads for the bait, averaged over ….

chain 1 E9M: the screen value is 0.000348 average fractional NGS count over selection days 2 and 3 (reads of this peptide / all reads for the bait, averaged over …. Same read-out and setting: the value for chain 1 E9F was 0.000875 average fractional NGS count over selection days 2 and 3 (reads of this peptide / all reads for the bait, averaged over …; that for chain 1 E9S was 0.0016 average fractional NGS count over selection days 2 and 3 (reads of this peptide / all reads for the bait, averaged over ….

Another test covers variants of B2. Described as above.
In the case of chain 1 E7H, the screen value was 0.00742 average fractional NGS count over selection days 2 and 3 (reads of this peptide / all reads for the bait, averaged over …. Regarding chain 1 E7D, the screen value is 0.00312 average fractional NGS count over selection days 2 and 3 (reads of this peptide / all reads for the bait, averaged over …. On to chain 1 A1P, for which the screen value was 0.000566 average fractional NGS count over selection days 2 and 3 (reads of this peptide / all reads for the bait, averaged over …. Regarding chain 1 F13W, the screen value was 0.000735 average fractional NGS count over selection days 2 and 3 (reads of this peptide / all reads for the bait, averaged over ….

Take chain 1 L5A: the screen value was 0.00106 average fractional NGS count over selection days 2 and 3 (reads of this peptide / all reads for the bait, averaged over …. With chain 1 L5Y, the screen value is 0.00132 average fractional NGS count over selection days 2 and 3 (reads of this peptide / all reads for the bait, averaged over …. chain 1 L3F: the screen value is 0.000885 average fractional NGS count over selection days 2 and 3 (reads of this peptide / all reads for the bait, averaged over …. Same read-out and setting: the value for chain 1 L3P was 0.00046 average fractional NGS count over selection days 2 and 3 (reads of this peptide / all reads for the bait, averaged over …. Consider chain 1 D2H, for which the screen value was 0.004 average fractional NGS count over selection days 2 and 3 (reads of this peptide / all reads for the bait, averaged over …. On to chain 1 D2E, for which the screen value was 0.000736 average fractional NGS count over selection days 2 and 3 (reads of this peptide / all reads for the bait, averaged over …. With chain 1 E12M, the screen value was 0.000654 average fractional NGS count over selection days 2 and 3 (reads of this peptide / all reads for the bait, averaged over ….

In the case of chain 1 A15W, the screen value was 0.00189 average fractional NGS count over selection days 2 and 3 (reads of this peptide / all reads for the bait, averaged over …. On the same count and under the same terms, the same measure for chain 1 A4L: 0.000672 average fractional NGS count over selection days 2 and 3 (reads of this peptide / all reads for the bait, averaged over ….
